Test results reported in article PMC9116394, “Triple-negative and triple-positive breast cancer cells reciprocally control their growth and migration via the S100A4 pathway” (Cell Adhesion & Migration, 2022).

Biological target: the molecule itself
Experiment: western blot of cell extracts; extracts of TNBC (MDA-MB-231) cells incubated in TPBC-medium, TNBC-medium or S-medium; detected with a polyclonal antibody to S100A4; gel conditions not stated

B1: S100A4 protein (natural protein)
chain: not shown
notes: S100A4 (Mts1), endogenous in the human triple-negative breast carcinoma cell line MDA-MB-231; Monomeric, dimeric and tetrameric forms were told apart as bands on a western blot of cell extracts; also called Mts1; source: endogenous, MDA-MB-231 (TNBC) cell extract
- stoichiometry N: 4
